Assay: yeast display, Sf9 membrane polyspecificity reagent, FACS + sequencing; frameworks hold sequencing errors
How it was run: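 Using colony PCR, genes from sorted yeast display clones were amplified, then sequenced on MiSeq at 2 × 250 and filtered by CDR length. The clones had been stained with 10% biotinylated, detergent-solubilized Sf9 membrane reagent for 1 hour at 4 °C and sorted by FACS into low and high (top ~1%) gates on anti-HA and streptavidin fluorescence. Polyreactivity labels come from the gate of origin.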

## QVQLVESGAGLLQAGGSLRLSCAASGFIFVTYAMGWYRQAPGKERELVAAITNSGGTTYYADSVKGRFTISRDNAKNTVYLQMISLKPEDTAVYYCNKAYGAETAHREFVYWGQGTQVTVSS
  polyreactivity (PSR sort gate): low polyreactivity

## QVQLVESGGGLVQAGGSLRLSCAASGFTFFNYAMAWYRQAPGKERELVAAISSNGGRTYYADSVKGRFTISRDNAKNTVYLQMNSLKPEDTAVYYCATLYYGRVDYDYWGQGTQVTVSS
  polyreactivity (PSR sort gate): high polyreactivity

## QVQLVESGGGLVQAGGILRLSCAAYGSISYGYGMGWYRQPPGKERELVATLSGRAGSTYYADSVKGRFTISRDNAKYTVYLQMNSLKPEDTAVYYCAAKWWRLTWTAGYGGRCYGYWGQGSQVTVSS
  polyreactivity (PSR sort gate): low polyreactivity

## QVQLVESGGGLVQAGGTLRISCAASGRTFRKYAMGWYRQAPGKERELVAAISWSGGSTYYANSVKGRFTISRDNAKNTVYLQMNSLKPEDTAVYYCAAVPVHTGSLYWGFTTGYDYWGQGTQVTVSS
  polyreactivity (PSR sort gate): low polyreactivity

## QVQLVESGGGLVQAGGSLRLSCAASGFTLFTYAMGWYRQAPGKERELVAAIRSGGSTYYADSVKGRFTISRDTAKNTVYLQMNSLKPEDTAVYYCNAVYRYASGKYYYWGQGTQVTVSS
  polyreactivity (PSR sort gate): high polyreactivity

## QVQLVESGGGLVQAGGSLRLSCAASGITFTSYAMGWYRQAPGKERELVAAISSSGVRTYYADSVKGRFTISRDYAKNTVYLQMKSLKPEDTAVYYCATRRRVLYGYDYWGQGTQVTVSS
  polyreactivity (PSR sort gate): high polyreactivity

## QVQLVESGGGLVQAGGSLRLSCAASGFTVPGYAMGWYRQAPGNERELVAAINSSGGRTYYADSVKGRFTISRDTAKITVYFQMTSLKPEDTAVYYCAATRWYIRARYNYWGQGTQVTVSS
  polyreactivity (PSR sort gate): high polyreactivity

## QVQLVDSGGGLVQAGGSLSLSCAASGSTYAYYAMGWYRQAPGKVRELVAGITWTGGSTYYADSVKGRFTISRDNAKNTVYLQMNSLKPEDTAVYYCAVTYPYGYEYDHWGQGTQVTVSS
  polyreactivity (PSR sort gate): low polyreactivity

## QVQLVESGGGLVQAGGSLRLSCAASGRTFVDYVMGWYRQAPGKERELVAAISRSGSTYYADSVKGRFTISRDNAKNTVYLQMNSLKPEDTAVYYCNVEYLRTYYILSDYWGQGTQVTVSS
  polyreactivity (PSR sort gate): low polyreactivity

## QVQLVESGRGLVQAGGSLRLSCAASGIIFPFYAMGCYRQAPGKERELVAAITSGDDTYYADSVKGRFTISRDNAKNTVYLQMNSLKPEDTAVYYCNKRLYIAGYWPQLYYIMDYWGQGTQVTVSS
  polyreactivity (PSR sort gate): low polyreactivity

## QVQLQESGDGLVQAGGSLRLSSAASGTIFSDYGMGGYRQAPGKERELLAGISDGCNTNYTDSVKGRFTISRDNAHRVSADEQPETGGYRGVLLGGSERWLIFYVYWGQGTQVTVSC
  polyreactivity (PSR sort gate): high polyreactivity

## QVQLVESGGGLVQAGGSLRLSCAASGRTFYGYAMGWYRQAPGKEREFVAAINWSGGTTYYADSVKGRFTISRDNAKNTVYLQMNSLKPEDTAVYYCAADYYRIRRWPGYYAYDYWGQGTQVTVSS
  polyreactivity (PSR sort gate): high polyreactivity

## QVQLVESGGGLVQAGGSLRLSCAASGSTFVTNGMGWYRQAPGKERELVAAISGNVGSTYYADSVKGRFTISRDNAKNTVYLQMNSLKPEDTAVYYCAARQYRPSDYDYWGQGTQVTVSS
  polyreactivity (PSR sort gate): low polyreactivity

## QVQLVESGGGLVQAGGSLRLSCAASGSTFNVYAMGWYRQAPGKERELVAGIRDSDGSTNYADSVKARFTISRDNAKNTVYLQMNSLKQEDPAVYYCAADLYDINWSVWLDYWGQGTQVTVSS
  polyreactivity (PSR sort gate): low polyreactivity

## PVQVVESGGVLVQAGGSRRLSCAAAGGNFYGNVMGWYRQAPGKERELVADITSVSSTYYADSVKGRFTISRDNAKNTVFLQMKRLKPEDTAVYYCAPEPDHVADSHSGYDYWGQGTQVTVSS
  polyreactivity (PSR sort gate): low polyreactivity

## QVQLVESGGGLVQAGGSLRLSCAASGRIFSRYAMGWYRQAPGKERELVAAINKSGGSTYYADSVKGRFTISRDNAKNTVYLQMNSLKPEDTAVYYCNAVYYWYKGDYWGQGSQVTVSS
  polyreactivity (PSR sort gate): high polyreactivity

## QVQLVESVGGLVQAGGSLRLSCAASGRTIRWYAMGWYRQAPGKERELVAAITFRGGRTYYADSVKGRFTISRDNEKNTVYLQMNSMKPEDTAVYYCNAVTYSSPYRFDYWGQGTQVTLSS
  polyreactivity (PSR sort gate): low polyreactivity

## QVQRVETGRGIVQAGGILRLSCAASGRTFHLYAMGWYRQQPGKERELVADIDGDGGSTYYSDSVKGRFTISRDNAKNTVYLQMNSLKPEDTAVYDCAASRFDYWGQGTQVTVSS
  polyreactivity (PSR sort gate): low polyreactivity

## QVQLVESGGGLVQAGGSLRLSCAASGRTSDGYAMGWYRQAPGKERELVAGITEGGGDTYYADSVKGRFTISRDNAKNTVYLQMNSLKPEDTAVYYCNAVEGSRLPYDYWGQGTQVTVSS
  polyreactivity (PSR sort gate): low polyreactivity

## QVQLVESGGGLVQAGGSLRLSCAASGRIFDDYAMGWYRQAPGKERELVAAIRSGGNTNYADSVKGRFTISRDNAKNTVYLQMNSLKPEDTADYYCAADTWFRAGYFVVYYDYWGQGTQVTVSS
  polyreactivity (PSR sort gate): low polyreactivity

## QVQLVESGGGLVQAGGSLRLSCDASGSIFRGYAMGWYRQAPGKEREFVAAISKRSGSTYYADSVKGRFTISRDNAKNSVYLQMNSLKPEDTAVYYCAKERVAAAGGYWGQGTQVTVSS
  polyreactivity (PSR sort gate): high polyreactivity

## QVQLVESGGGLDQAGGSLRLSCAASGSTFYDNAMRWYRQAPGKERELVADISSGGRTNYADSVKGRFTISRDNAKNTVYLQMNCLKPEDTAVYYCAARLYVLRWYPYDYWGQGTQVTVSS
  polyreactivity (PSR sort gate): low polyreactivity

## QVQLEESGGGFVQAGGSLRLSCAPSGTTFKSNAMGWYRQAPGKERELVAAINSGTSTYYADSVKGRFTISRDNAKNTVYLQMNSLKPEDTAVYYCSADGIWGEYYYSELGDYDYWGLGTQVTVSS
  polyreactivity (PSR sort gate): low polyreactivity

## QVQLVESGGGLVQAGGSLRLTCAASGFTFYRYDMGWYRQAPGKERELVAAITNNGGNTYYADSVKGRFTISRDNAKNTVYLQMNSLKPDVTAVYYCATKRYYWRGYWGQGTQVSVSS
  polyreactivity (PSR sort gate): high polyreactivity

## QVQLVESGGGLVQAGGRLRLSCAASVGIFYYYAMGWYRQAPGKERELVATITYTGGSTYADSVKGRFTISRDNAKNTVYLQMNSLKPEDTAVYYCAADGRSRSYYGYDHWGQGTQVTVSS
  polyreactivity (PSR sort gate): low polyreactivity

## QVQLVESGGALVQAGGSLRLICAASGSIFGHNAMGWYRQAPGKERELVAAISRGTRTNYADSVKGRFTISRDNAKNTFYVQMNSLKQVDSAVYYCNLQPGRGPYVGRKYGYWGQGTQVTVSS
  polyreactivity (PSR sort gate): high polyreactivity

## QVQLVESGGGLVQAGGSLRLSCAASGRTFASNAMGWYRQAPGKERELVAAITISGGRTYYADSVKGRFTISRDNAKNTVYLQMNSLKPEDTAVYYCAAAKHSWRPSYYWGGYWGQGTQVTVSS
  polyreactivity (PSR sort gate): low polyreactivity

## QVQLVESGGGLVQAGGSLRLSCAASGRIFSRNAMGWYRQAPGKERELVAAITYSGGSTYYADSVKGRFTISRDNAKNTVYLQMNSLKPEDTAVYYCNADLYLQLPESYEYDYWGQGTQVTVSS
  polyreactivity (PSR sort gate): high polyreactivity

## QVQLVESGGGLVQAGGSLRLSCAASGSIFYQNAMGWSRQAPGKEWELVAAISWSGGSTYYADSVKGRFTISRDNAKNTDFLQMNSLKPEDTAVYYCNKYVRFRGGAYVTGYDYWGQGTQVTVSS
  polyreactivity (PSR sort gate): high polyreactivity

## QVQLVESGGGLVQAGGSLRLSCAASGFTFNRYVMGWYRQAPGKERELVAAIDSGDSTYYADSVKGRFTISRDNAKNTVYLQMNSLKPEDTAVFYCAAEFKSKFFSDIFDNDYDYWGQGTQVSVSS
  polyreactivity (PSR sort gate): high polyreactivity

## QVQLVESGGGLVQAGGSLRLICAASGSIFFTYVMGWYRQSPGKERELVAAISSDDNTNYADSVKGRFTSSRDNAKNTVYLQMHSLKPEDTAVYYCNADTTRYPYYDYGYYDYDYWGQGTQVTVSS
  polyreactivity (PSR sort gate): low polyreactivity

## QVQLVESGGGLVQEGGSLRLSCAASGFTIFQYAMGWYRQAPGKERELVATITSAGSTNYADSVKGRFTISLDNAKNTVYLQMNSLIPEDTAVYYCNTKKLPYAEGYWGQGTQVSVSS
  polyreactivity (PSR sort gate): low polyreactivity

## QVQLVESGGGLVQAGGSLRLSCAASGRIFILYGMGWYRQAPGKERELVAAIRWSGASTYYADSVKGRFTISRDNAKNTVYLQMNSLKPEDTAVYYCAATVGFTPSFWYSSKYDYWGQGTQVTVSS
  polyreactivity (PSR sort gate): low polyreactivity

## QVQHVESGGGLVQAGGSLRLSCAASGLTFSQNAMGWYRQPQGQERELVAAISSSGTSTYYADSVKGRFSISRDNAKNTVYLQMNSVKPEDTAVYYCNAPPGTFQWQGHSDYWGQGTQVTVSS
  polyreactivity (PSR sort gate): low polyreactivity

## QVQLQESGGVLEQARGSLRLSCAASGFIFARNYMGWYSQAPGKERELVAGIGVGAITNYADSVKGRFTISRDNAKNTVYLQMNSLETEESAVYYCAVGDTVLGYHYYWGQGTQVTVSN
  polyreactivity (PSR sort gate): low polyreactivity

## QVQLVESGGGLVQAGGSLRLSCAASGINFIVNPMGWYRQAPGKEREFVATISANSDGTYYADSVKGRFTISRDNAKNTVYLQMNSLKPEDTAVYYWGQGTQVTVSS
  polyreactivity (PSR sort gate): low polyreactivity

## QVQLVESGGGLVQAGGSLRLSCDASGSTIIRNAMGWSRQAPGKERELVAAISTSGGRTHYADSVKGRFTISRDNAKNTVYLKMNSLKPEDTAVYYCATRGKGHYYYWGQGTQVTVSS
  polyreactivity (PSR sort gate): high polyreactivity

## QVQLVESGAGLVQAGGSLRLSCAASGSIFWWNALGWYRQAPGKQRELVAAINWSTGRTYYADSVKGRFTISRDNAKNTVYLQMISLKPEDTAVYYCAACFVGDLGYEYWGQGTQVTVSS
  polyreactivity (PSR sort gate): low polyreactivity

## QVQLVESGGGLVQAGGSLRLSCAASGRIFRNNAMGGDRQAPGKERELVASITSSGGSTYYADSVKGRFTISRDNAKNTVYLQMNSLKPEDTAVYYCAAYTRSGYGYKLYYYWGQGTQVNVSS
  polyreactivity (PSR sort gate): high polyreactivity

## QVQIVESGGGLVQAGGSLRLSCAASGRTLYGYAMGWYRQAPGKEREMVASIRSGGSTNYADSVKGRFTISRDNAKNTVYLQMNCLKPEDTAVYYCADDPYYSYGYYHAHGRDVGYWGQGTQVTVSS
  polyreactivity (PSR sort gate): low polyreactivity

## QVQLVESGGGLVQAGGSLRLSCAASGGLFTLNAMGWYRQAPGKEREMVAGISWSGDRTYYADSVKGRFTISRDNAKNTVYLQMNSLKPEDTAVYYCAAYDYWGQGTQVTVSS
  polyreactivity (PSR sort gate): low polyreactivity

## QVQLVESGGGLVQAGGSLRLSCAASGHTFSISAMGWYRQAPGKERELVAAISLSGGSTDYADSVKGRFTISRDNAKNTVYLQMNSLKPEDTAVYYCAADVFTARRSYDYGGQGTQVTVSS
  polyreactivity (PSR sort gate): low polyreactivity

## QVQLQESGGGLVQAGGSLRLSCAASGTISYPRTMGWYRQAPGKEREFVAGIGVGGTTYYADSVKGRFTISRDNAKYTVYLQMNILKPEDAAVYYCAVAAYYDKYYVYWGQGTQVTVSF
  polyreactivity (PSR sort gate): low polyreactivity

— the nanobody polyreactivity screen of Harvey et al. (2022)
